Tested on: patients with osteoarthritis (OA) of the knee or hip
Assay: Example 3: treatment-emergent adverse events and deaths, Safety Population;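 also: seven SC injections given 8 weeks apart plus twice-daily oral study medication up to Week 56, Safety Population of all patients dosed at least once SC, analyzed by treatment actually received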
Protocol: Patients received a total of seven SC injections, each separated by 8 weeks and daily oral (PO) study medication BID through Week 56.
The Intent-to-Treat (ITT) Population included all patients who were randomized and received at least one dose of SC study drug. This analysis set was primary for all efficacy endpoints, which were analyzed according to randomization assignment. The Safety Population included all patients who received at least one dose of SC study treatment. This analysis set was primary for all safety endpoints, which were analyzed according to treatment received.

tanezumab: humanized immunoglobulin G Type 2 (IgG2) monoclonal antibody directed against human nerve growth factor (NGF); SEQ ID NOs: 9 or 11 and 10
deaths: patients (2.5 mg SC, during the safety follow-up period): 2 | deaths: patients (2.5 mg SC, during the treatment period): 2 | Adverse Event: % of patients (2.5 mg SC, treatment period): 62.8% | Adverse Event: number of patients (2.5 mg SC, treatment period): 629 | Arthralgia: % of patients (2.5 mg SC, treatment period): 13.3% | Arthralgia: number of patients (2.5 mg SC, treatment period): 133 | Back pain: % of patients (2.5 mg SC, treatment period): 3.4% | Back pain: number of patients (2.5 mg SC, treatment period): 34 | Discontinued from study (adverse event): % of patients (2.5 mg SC, treatment period): 2.3% | Discontinued from study (adverse event): number of patients (2.5 mg SC, treatment period): 23 | Discontinued study drug and continued study (adverse event): % of patients (2.5 mg SC, treatment period): 5.3% | Discontinued study drug and continued study (adverse event): number of patients (2.5 mg SC, treatment period): 53 | Fall: % of patients (2.5 mg SC, treatment period): 6.5% | Fall: number of patients (2.5 mg SC, treatment period): 65 | Headache: % of patients (2.5 mg SC, treatment period): 5.6% | Headache: number of patients (2.5 mg SC, treatment period): 56 | Joint swelling: % of patients (2.5 mg SC, treatment period): 4.3% | Joint swelling: number of patients (2.5 mg SC, treatment period): 43 | Musculoskeletal pain: % of patients (2.5 mg SC, treatment period): 4.3% | Musculoskeletal pain: number of patients (2.5 mg SC, treatment period): 43 | Nasopharyngitis: % of patients (2.5 mg SC, treatment period): 5.7% | Nasopharyngitis: number of patients (2.5 mg SC, treatment period): 57 | Osteoarthritis: % of patients (2.5 mg SC, treatment period): 3.9% | Osteoarthritis: number of patients (2.5 mg SC, treatment period): 39 | Pain in extremity: % of patients (2.5 mg SC, treatment period): 3.1% | Pain in extremity: number of patients (2.5 mg SC, treatment period): 31 | Paraesthesia: % of patients (2.5 mg SC, treatment period): 1.8% | Paraesthesia: number of patients (2.5 mg SC, treatment period): 18 | Peripheral edema: % of patients (2.5 mg SC, treatment period): 1.9% | Peripheral edema: number of patients (2.5 mg SC, treatment period): 19 | Rapidly progressive osteoarthritis (adverse event): % of patients (2.5 mg SC, treatment period): 1.8% | Rapidly progressive osteoarthritis (adverse event): number of patients (2.5 mg SC, treatment period): 18 | Serious AE Acute kidney injury: n (2.5 mg SC, treatment period): 0 | Serious AE Acute myocardial infarction: % (2.5 mg SC, treatment period): 1.0% | Serious AE Acute myocardial infarction: n (2.5 mg SC, treatment period): 1 | Serious AE Arthralgia: % (2.5 mg SC, treatment period): 0.4% | Serious AE Arthralgia: n (2.5 mg SC, treatment period): 4 | Serious AE Cellulitis: n (2.5 mg SC, treatment period): 0 | Serious AE Cerebrovascular accident: % (2.5 mg SC, treatment period): 0.2% | Serious AE Cerebrovascular accident: n (2.5 mg SC, treatment period): 2 | Serious AE Gastrointestinal hemorrhage: n (2.5 mg SC, treatment period): 0 | Serious AE Intervetebral disc protrusion: n (2.5 mg SC, treatment period): 0 | Serious AE Meniscus injury: % (2.5 mg SC, treatment period): 0.1% | Serious AE Meniscus injury: n (2.5 mg SC, treatment period): 1 | Serious AE Osteoarthritis: % (2.5 mg SC, treatment period): 0.9% | Serious AE Osteoarthritis: n (2.5 mg SC, treatment period): 9 | Serious AE Osteonecrosis: n (2.5 mg SC, treatment period): 0 | Serious AE Pneumonia: % (2.5 mg SC, treatment period): 0.1% | Serious AE Pneumonia: n (2.5 mg SC, treatment period): 1 | Serious AE RPOA: % (2.5 mg SC, treatment period): 0.3% | Serious AE RPOA: n (2.5 mg SC, treatment period): 3 | Serious AE Subchondral insufficiency fracture: % (2.5 mg SC, treatment period): 0.1% | Serious AE Subchondral insufficiency fracture: n (2.5 mg SC, treatment period): 1 | Serious Adverse Event (any event): % of patients (2.5 mg SC, treatment period): 5.1% | Serious Adverse Event (any event): number of patients (2.5 mg SC, treatment period): 51 | Severe Adverse Event: % of patients (2.5 mg SC, treatment period): 4.5% | Severe Adverse Event: number of patients (2.5 mg SC, treatment period): 45 | Upper respiratory tract infection: number of patients (2.5 mg SC, treatment period): 57 | deaths: patients (5 mg SC, after patient discontinuation from the study): 1 | deaths: patients (5 mg SC, during the safety follow-up period): 1 | deaths: patients (5 mg SC, during the treatment period): 3 | Adverse Event: % of patients (5 mg SC, treatment period): 67.1% | Adverse Event: number of patients (5 mg SC, treatment period): 670 | Arthralgia: % of patients (5 mg SC, treatment period): 16.5% | Arthralgia: number of patients (5 mg SC, treatment period): 165 | Back pain: % of patients (5 mg SC, treatment period): 5.5% | Back pain: number of patients (5 mg SC, treatment period): 55 | Discontinued from study (adverse event): % of patients (5 mg SC, treatment period): 2.0% | Discontinued from study (adverse event): number of patients (5 mg SC, treatment period): 20 | Discontinued study drug and continued study (adverse event): % of patients (5 mg SC, treatment period): 8.8% | Discontinued study drug and continued study (adverse event): number of patients (5 mg SC, treatment period): 88 | Fall: % of patients (5 mg SC, treatment period): 5.3% | Fall: number of patients (5 mg SC, treatment period): 53 | Headache: % of patients (5 mg SC, treatment period): 4.5% | Headache: number of patients (5 mg SC, treatment period): 45 | Joint swelling: % of patients (5 mg SC, treatment period): 4.8% | Joint swelling: number of patients (5 mg SC, treatment period): 48 | Musculoskeletal pain: % of patients (5 mg SC, treatment period): 4.1% | Musculoskeletal pain: number of patients (5 mg SC, treatment period): 41 | Nasopharyngitis: % of patients (5 mg SC, treatment period): 6.7% | Nasopharyngitis: number of patients (5 mg SC, treatment period): 67 | Osteoarthritis: % of patients (5 mg SC, treatment period): 5.4% | Osteoarthritis: number of patients (5 mg SC, treatment period): 54 | Pain in extremity: % of patients (5 mg SC, treatment period): 3.7% | Pain in extremity: number of patients (5 mg SC, treatment period): 37 | Paraesthesia: % of patients (5 mg SC, treatment period): 3.0% | Paraesthesia: number of patients (5 mg SC, treatment period): 30 | Peripheral edema: % of patients (5 mg SC, treatment period): 4.3% | Peripheral edema: number of patients (5 mg SC, treatment period): 43 | Rapidly progressive osteoarthritis (adverse event): % of patients (5 mg SC, treatment period): 4.1% | Rapidly progressive osteoarthritis (adverse event): number of patients (5 mg SC, treatment period): 41 | Serious AE Acute kidney injury: % (5 mg SC, treatment period): 0.2% | Serious AE Acute kidney injury: n (5 mg SC, treatment period): 2 | Serious AE Acute myocardial infarction: % (5 mg SC, treatment period): 0.1% | Serious AE Acute myocardial infarction: n (5 mg SC, treatment period): 1 | Serious AE Arthralgia: % (5 mg SC, treatment period): 0.9% | Serious AE Arthralgia: n (5 mg SC, treatment period): 9 | Serious AE Cellulitis: % (5 mg SC, treatment period): 0.2% | Serious AE Cellulitis: n (5 mg SC, treatment period): 2 | Serious AE Cerebrovascular accident: n (5 mg SC, treatment period): 0 | Serious AE Gastrointestinal hemorrhage: n (5 mg SC, treatment period): 0 | Serious AE Intervetebral disc protrusion: % (5 mg SC, treatment period): 0.2% | Serious AE Intervetebral disc protrusion: n (5 mg SC, treatment period): 2 | Serious AE Meniscus injury: % (5 mg SC, treatment period): 0.3% | Serious AE Meniscus injury: n (5 mg SC, treatment period): 3 | Serious AE Osteoarthritis: % (5 mg SC, treatment period): 1.7% | Serious AE Osteoarthritis: n (5 mg SC, treatment period): 17 | Serious AE Osteonecrosis: % (5 mg SC, treatment period): 0.2% | Serious AE Osteonecrosis: n (5 mg SC, treatment period): 2 | Serious AE Pneumonia: % (5 mg SC, treatment period): 0.2% | Serious AE Pneumonia: n (5 mg SC, treatment period): 2 | Serious AE RPOA: % (5 mg SC, treatment period): 1.1% | Serious AE RPOA: n (5 mg SC, treatment period): 11 | Serious AE Subchondral insufficiency fracture: % (5 mg SC, treatment period): 0.4% | Serious AE Subchondral insufficiency fracture: n (5 mg SC, treatment period): 4 | Serious Adverse Event (any event): % of patients (5 mg SC, treatment period): 8.0% | Serious Adverse Event (any event): number of patients (5 mg SC, treatment period): 80 | Severe Adverse Event: % of patients (5 mg SC, treatment period): 6.8% | Severe Adverse Event: number of patients (5 mg SC, treatment period): 68 | Upper respiratory tract infection: number of patients (5 mg SC, treatment period): 45

— US20220089710A1, “Method of Treating Signs and Symptoms of Osteoarthritis” (Pfizer Inc., priority 2019, published 2022)
